Assay [1] has as its target recombinant human KLK5 (human), Q9Y337. As to the kind of experiment: cell-based or functional assay.
The target in assay [2] is recombinant human KLK5 (human) (UniProt Q9Y337). As to the kind of experiment: cell-based or functional assay.
For assay [3] the target is unchanged. As to the kind of experiment: array SPR imaging (IBIS MX96), antibody amine-coupled, human KLK5 injected 0-300 nM, 25 C.
Assay [4] shares this target. The assay can be described thus: Kiapp assay curve, 0.500 nM KLK5, Z-VPR-pNA.
Assay [5] has the same target. The assay can be described thus: Kiapp as the y-intercept of the line of IC50 (nM) versus KLK5 (nM), Z-VPR-pNA.
The target is the same in assay [6]. As to the kind of experiment: pro-KLK1 LC/MS assay, 0.5 nM KLK5.
Assay [7] has the same target. As to the kind of experiment: pro-KLK7 LC/MS assay, 5 nM KLK5, 15 nM pro-KLK7; box prints neither IC50 nor a unit, IC50 in nM per text.
The target is the same in assay [8]. As to the kind of experiment: pro-KLK1 LC/MS assay, 0.5 nM KLK5, 300 nM pro-KLK1; single value in the box; unit inferred, nM.
Assay [9] shares this target. The assay can be described thus: direct activity assay, 5 nM KLK5, Boc-VPR-AMC.
Assay [10] shares this target. The assay can be described thus: Kiapp assay curve, 0.250 nM KLK5, Z-VPR-pNA.
The target is the same in assay [11]. As to the kind of experiment: Kiapp, KLK5 0.5-0.0625 nM, Z-VPR-pNA.
Assay [12] has the same target. The assay can be described thus: KLK5 direct activity assay, 5 nM KLK5, Boc-VPR-AMC.
For assay [13] the target is unchanged. As to the kind of experiment: Kiapp assay curve, 0.125 nM KLK5, Z-VPR-pNA.
Assay [14] shares this target. The assay can be described thus: pro-KLK1 coupled assay, 0.5 nM KLK5.
The target is the same in assay [15]. As to the kind of experiment: SPR BIAcore T200, antibody captured by anti-human Fc, human KLK5 as analyte, 37 C. On the technique in general: SPR reads the build-up and loss of mass on a sensor chip optically.
Assay [16] has the same target. The assay can be described thus: pro-KLK7 LC/MS assay, 5 nM KLK5.
For assay [17] the target is unchanged. As to the kind of experiment: pro-KLK7 coupled assay, 5 nM KLK5.
Assay [18] shares this target. As to the kind of experiment: pro-KLK1 coupled assay, 0.5 nM KLK5, 31.25 nM pro-KLK1, PFR-AMC.
Assay [19] shares this target. The assay can be described thus: pro-KLK1 LC/MS assay, 0.5 nM KLK5, 300 nM pro-KLK1; box column 3 of 3; no unit printed, nM per text.
For assay [20] the target is unchanged. As to the kind of experiment: pro-KLK1 LC/MS assay, 0.5 nM KLK5, 300 nM pro-KLK1; box column 2 of 3; no unit printed, nM per text.
The target is the same in assay [21]. As to the kind of experiment: pro-KLK7 LC/MS assay, 5 nM KLK5, 15 nM pro-KLK7, nM.
The target is the same in assay [22]. As to the kind of experiment: pro-KLK7 coupled assay, 5 nM KLK5, 125 nM pro-KLK7, suc-LLVY-AMC.
Assay [23] has the same target. As to the kind of experiment: Kiapp assay curve, 0.063 nM KLK5, Z-VPR-pNA.
Assay [24] has the same target. The assay can be described thus: pro-KLK1 LC/MS assay, 0.5 nM KLK5, 300 nM pro-KLK1; box column 1 of 3; no unit printed, nM per text.

Sequence of recombinant human KLK5 (human) (Q9Y337 67-293): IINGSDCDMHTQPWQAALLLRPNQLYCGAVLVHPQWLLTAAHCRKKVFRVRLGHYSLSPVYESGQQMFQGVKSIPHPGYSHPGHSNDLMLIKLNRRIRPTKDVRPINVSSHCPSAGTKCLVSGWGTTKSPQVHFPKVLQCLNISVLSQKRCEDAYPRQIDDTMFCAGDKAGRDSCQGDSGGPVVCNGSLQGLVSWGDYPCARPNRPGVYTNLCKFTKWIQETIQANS
Sequence of recombinant human KLK5 (human), Q9Y337 (Q9Y337 67-293): as above

B1: 12B3 (antibody, V domains shown)
VH: QSLEESGGGLVKPGGTLTLTCKASGIDFNGGGIYWVRQAPGKGLEWIASIYPDHGSVDYANWVNGRFTISLDNAQNTVFLQLTSLTVADTATYFCARESGGSYYDLWGPGTLVTVSS
VL: AYDMTQTPASVEVAVGGTVTIKCQASQSISTYLAWYQQKPGQRPNLLIYKTSTLASGVPSRFRGSGSGTQFTLTISGVECADAATYYCQQGYSGSSVENTFGGGTEVVVK
As for B1, the inhibition of human KLK5 (screening) in assay [1] is less than 50%.

B2: 1D10 (antibody, V domains shown)
VH: QSLEESGGGLVKPGGTLTLTCTASGFDFNGGGIYWVRQAPGKGLEWIAYIYPDHGSADYATWVNGRFTISLDNAQNTVFLQMTSLTVADTATYFCARETGGSWYDLWGPGTLVTVSS
VL: AYDMTQTPVSVEAAVGGTVTIKCQASQSISSYLAWYQQKPGQPPKLLIYKASTLASGVSSRFKGSGSGTEFTLTISDLECADAATYYCQQGYSGSNVENTFGGGTEVVVK
Turning to B2, the inhibition of human KLK5 (screening) in [1] is less than 50%.

B3: 8E11 (antibody, V domains shown)
VH: QEQLEESGGDLVKPEGSLTLTCTASGFSFSSSYWICWVRQAPGKGLEWIACVYGLDVNIYYASWTKGRFTISKTSSTTVTLQMTSLTAADTATYFCARGGGSADFGFDLWGPGTLVTVSS
VL: DVVMTQTASPVSAAVGGTVTIKCQASENIYSLLAWYQQKPGQPPKVLIYDASDLASGVPSRFKGSGSGTQFTLTISDLECADAATYYCQATAYGSSGNAFGGGTEVVVK
B3: in assay [2], the inhibition of human KLK5 (screening) was less than 90%. For the same molecule, the koff (commonly a measure of how fast the partners let go of each other) in assay [3] was found to be 0.000202 s⁻¹.

B4: 14E12 (antibody, V domains shown)
VH: EVQLVESGGGLVRPGRSLRLSCAASGFTFSDYYMAWVRQAPTKGLEWVASISYDGDTTYYRDSVKGRFTISRDNARSSLYLQMDSLRSDDTANYFCTTDGTIPAGSWFAYWGQGTLVTVSS
VL: DIQMTQSPASLSASLGETVTIECLASKNIYRNLAWYQQKPGKSPQFLISDASRLQDGVPSRFTGSDSGSQYSLKINSLQSEDVATYFCQQYHDYPYTFGAGTKLELK
As for B4, in assay [2], the inhibition of human KLK5 (screening) is less than 90%. Further, the dissociation rate constant (koff) in [3] was 0.000414 s⁻¹.

B5: 3-3F5 (antibody, V domains shown)
VH: QSVKESEGGLFKPTDTLTLTCTVSGFSLNDYGVSWVRQAPGNGLEWIGAIGSSGVAWYANWAKGRSTITRNTNLNTVTLKMASLTAADTATYFCARDRDYGYRADDATSGMDLWGPGTLVTVSS
VL: AYDMTQTPASVEAAVGGTVTIKCQASESIGNALAWYQQKPGQPPKLLIYDASDLASGVPSRFKGSGSGTQFTLTISGVECADAATYYCQQGDSHNNVDNIFGGGTEVVVK
In the case of B5, the IC50 (read off the curve) in assay [4] was 0.1 nM; in assay [10] it was 0.07 nM; in [12], 1 to 2 nM; in assay [13] it was 0.04 nM; in assay [18], 0.1 to 0.2 nM. Moreover, the Ki in assay [5] was 0.0081 nM; in assay [11], less than 0.01 nM. For the same molecule, the IC50 (in general, the concentration at which inhibition is half-maximal) in assay [6] came to 0.15 nM; in [7] it was 1.44 nM; in assay [8], 0.152 nM; in assay [9], 1.32 nM; in assay [14], 0.14 nM; in assay [16] it was 1.44 nM. Also, the IC50 in assay [17] was 1.53 nM. Moreover, the Kd – broadly, the concentration at which binding is half-saturated – in [15] is less than 0.001 nM. Moreover, the koff in assay [15] was less than 1e-05 s⁻¹. Further, the kon (usually a measure of how fast the partners come together) in [15] amounted to 2.93e+07 M⁻¹ s⁻¹.

B6: 9H5 (antibody, V domains shown)
VH: QSVKESEGGLFKPTDNLTLTCTVSGFSLSSYGVSWVRQAPGNGLEYIGFIGSGGFAYYASWAKSRSTITRNTNLNTVTLKMTSLTAADTATYFCARDDVGGGKSLDIWGPGTVVTVSV
VL: NIVMTQTPASVEAAVGGTVTINCQASQSISSYLSWYQQKSGQRPKLLIFSASTLASGVPSRFTGSGSGTQFTLTISDLQCADAATYYCHQDYTSSNVDNTFGGGTEVVVK
Consider B6, for which the IC50 in assay [19] was found to be 0.102 nM; in assay [20], 0.343 nM; in assay [21], 1.68 nM; in assay [6] it was 0.19 nM; in assay [9] it was 1.08 nM; in [24], 0.138 nM. Also, the IC50 came out at 0.139 nM in [14], 1.68 nM in [16] and 0.87 nM in assay [17]. For the same molecule, the IC50 (read off the curve) in assay [4] stood at 0.3 nM; in [22] it was 0.8 nM; in assay [23], 0.2 nM; in assay [10], 0.2 nM; in assay [12] it was 0.8 nM; in assay [13], 0.2 nM. Also, the IC50 (read off the curve) in [18] lay in the range of 0.1 to 0.2 nM. The Ki stood at 0.402 nM in [5] and 0.425 nM in [11]. For the same molecule, the koff in assay [3] stood at 0.000367 s⁻¹; in assay [15] it was 0.000137 s⁻¹. For the same molecule, the Kd in assay [15] was 0.193 nM. Also, the kon in [15] was 705000 M⁻¹ s⁻¹.

B7: 14C8 (antibody, V domains shown)
VH: EVQLVESGGGLVQPGRSLKLSCTASGFTFSDYNMAWVRQAPKGGLEWVTTISYDAGRTYYRDSVKGRFTISRDNAKRTLSLQMDSLRSEDTATYYCATGIFNYGTDYFDYWGQGVMVTVSS
VL: DIQMTQSPASLSASLGETVTIQCRASEDIYSGLAWYQQKPGKSPQLLIYGATTLHDGVPSRFSGSGSGTQYSLKISSMHSEDEGIYFCHQGLSFPYTFGAGTKLELK
As to B7, the inhibition of human KLK5 (screening) in [2] was less than 90%. In addition, the dissociation rate constant (koff) in [3] was found to be 0.000376 s⁻¹.

Source of the values: patent US20200040103A1.
